Assay results taken from IntAct's records for PubMed 18200045.

B1: Epidermal growth factor receptor substrate 15 (Homo sapiens), P42566 (parent)
chain: MAAAAQLSLTQLSSGNPVYEKYYRQVDTGNTGRVLASDAAAFLKKSGLPDLILGKIWDLADTDGKGILNKQEFFVALRLVACAQNGLEVSLSSLNLAVPPPRFHDTSSPLLISGTSAAELPWAVKPEDKAKYDAIFDSLSPVNGFLSGDKVKPVLLNSKLPVDILGRVWELSDIDHDGMLDRDEFAVAMFLVYCALEKEPVPMSLPPALVPPSKRKTWVVSPAEKAKYDEIFLKTDKDMDGFVSGLEVREIFLKTGLPSTLLAHIWSLCDTKDCGKLSKDQFALAFHLISQKLIKGIDPPHVLTPEMIPPSDRASLQKNIIGSSPVADFSAIKELDTLNNEIVDLQREKNNVEQDLKEKEDTIKQRTSEVQDLQDEVQRENTNLQKLQAQKQQVQELLDELDEQKAQLEEQLKEVRKKCAEEAQLISSLKAELTSQESQISTYEEELAKAREELSRLQQETAELEESVESGKAQLEPLQQHLQDSQQEISSMQMKLMEMKDLENHNSQLNWCSSPHSILVNGATDYCSLSTSSSETANLNEHVEGQSNLESEPIHQESPARSSPELLPSGVTDENEVTTAVTEKVCSELDNNRHSKEEDPFNVDSSSLTGPVADTNLDFFQSDPFVGSDPFKDDPFGKIDPFGGDPFKGSDPFASDCFFRQSTDPFATSSTDPFSAANNSSITSVETLKHNDPFAPGGTVVAASDSATDPFASVFGNESFGGGFADFSTLSKVNNEDPFRSATSSSVSNVVITKNVFEETSVKSEDEPPALPPKIGTPTRPCPLPPGKRSINKLDSPDPFKLNDPFQPFPGNDSPKEKDPEIFCDPFTSATTTTNKEADPSNFANFSAYPSEEDMIEWAKRESEREEEQRLARLNQQEQEDLELAIALSKSEISEA
partner: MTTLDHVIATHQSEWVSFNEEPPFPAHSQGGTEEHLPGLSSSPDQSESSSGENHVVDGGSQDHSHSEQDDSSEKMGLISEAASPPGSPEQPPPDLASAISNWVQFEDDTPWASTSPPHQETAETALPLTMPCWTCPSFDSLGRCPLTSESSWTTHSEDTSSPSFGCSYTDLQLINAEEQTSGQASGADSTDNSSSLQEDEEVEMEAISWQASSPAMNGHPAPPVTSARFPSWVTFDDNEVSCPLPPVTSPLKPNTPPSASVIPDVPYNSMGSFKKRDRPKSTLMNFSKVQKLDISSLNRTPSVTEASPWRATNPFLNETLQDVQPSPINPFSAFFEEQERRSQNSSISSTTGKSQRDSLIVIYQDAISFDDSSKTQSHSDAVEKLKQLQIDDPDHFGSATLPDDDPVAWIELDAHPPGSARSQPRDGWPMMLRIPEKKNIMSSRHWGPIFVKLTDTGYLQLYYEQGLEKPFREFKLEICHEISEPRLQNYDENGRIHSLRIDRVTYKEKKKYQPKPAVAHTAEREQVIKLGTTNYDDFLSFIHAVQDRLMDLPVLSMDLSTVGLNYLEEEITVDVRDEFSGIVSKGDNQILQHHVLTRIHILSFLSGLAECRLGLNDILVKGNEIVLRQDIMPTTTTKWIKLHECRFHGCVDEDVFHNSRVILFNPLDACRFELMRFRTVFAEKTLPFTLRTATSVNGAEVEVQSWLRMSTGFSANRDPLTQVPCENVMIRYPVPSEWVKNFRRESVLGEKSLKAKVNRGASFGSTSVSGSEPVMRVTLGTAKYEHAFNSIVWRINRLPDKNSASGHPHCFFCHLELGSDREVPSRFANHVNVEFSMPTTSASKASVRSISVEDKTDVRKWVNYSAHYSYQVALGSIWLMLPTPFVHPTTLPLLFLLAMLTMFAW

Variants of: B1
Conditions: with ston2_human STON2, Q8WXE9

Q: With W266A as the variant, how does the “effect of a mutation on the interaction” value read?
A: The value was “decreasing interaction”.

Variants of: B1
Conditions: with ston2_human STON2, Q8WXE9
Remark: another data set of the same source

Q: V154E was tested. Which “effect of a mutation on the interaction” value did it give?
A: Its value is “decreasing interaction”.

Variants of: B1
Conditions: with ston2_human STON2, Q8WXE9
Remark: another data set of the same source

Q: For V154E, which “effect of a mutation on the interaction” value is on record?
A: The value was “disrupting interaction”.

Variants of: B1
Conditions: with ston2_human STON2, Q8WXE9
Remark: another data set of the same source

Q: How did the “effect of a mutation on the interaction” value turn out when W169A was run?
A: The value was “decreasing interaction”.

Variants of: B1
Conditions: with ston2_human STON2, Q8WXE9
Remark: another data set of the same source

Q: For W169A, which “effect of a mutation on the interaction” value is on record?
A: Its value is “disrupting interaction”.

Variants of: B1
Conditions: with ston2_human STON2, Q8WXE9
Remark: another data set of the same source

Q: Which “effect of a mutation on the interaction” value does the source give for Y193D here?
A: Its value is “decreasing interaction”.
